From article PMC13038408 come the findings set out here.

Some results are limits rather than exact numbers.

Test [1] addresses RSVF-multi-4 K29L. Kind of test: SPR.
The target of test [2] is prefusion RSVF sc9-10 DS-Cav1-A149C;Y458C;S46G;E92D;S215P;K465Q thermostabilized variant (DS2) (respiratory syncytial virus) (UniProt P03420). Put plainly: SPR.

Chain of motavizumab Fab (VH): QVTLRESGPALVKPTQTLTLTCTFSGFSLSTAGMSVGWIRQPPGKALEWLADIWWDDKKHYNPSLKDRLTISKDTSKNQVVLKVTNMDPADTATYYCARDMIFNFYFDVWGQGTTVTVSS
Chain of motavizumab Fab (VL): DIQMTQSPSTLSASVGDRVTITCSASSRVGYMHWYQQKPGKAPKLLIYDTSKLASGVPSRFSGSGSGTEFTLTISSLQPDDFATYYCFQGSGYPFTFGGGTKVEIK

In the case of RSV90 Fab, the Kd in test [1] is > 1000 nM; in test [2] it was 0.9 nM.
On to motavizumab Fab, for which, in test [2], the Kd is 0.015 nM.

One may read the Kd as the concentration at which binding is half-saturated. A higher Kd goes with a looser complex.
